Experiment: soluble on expression in E. coli; label from the status in PepcDB or PDB records

Question: Which “soluble on expression in E. coli” value does the source give for “MTNQNVLLNISGVKFVLRIPNAVNLSLINREYEAFNNAQAYRAGLNVETPVLDAKSGVKLTRYLENSNTLSQIQLNEQSCLSQVVNNLYRLHNSEFVFRNVFSVFDEFRQYFSLLENKSAFYQADSRMDKLSAVFWQFEEINKEVILRPCHNDLVPENMLLQDDRLFFIDWEYSGLNDPLFDIATIIEEAHLSKEAADFLLETYCNQTNKYHKTEFQIAHKRLKIHRFCQNVLWFLWTKVKEEHGENFGDYALKRLDAAFKLLEELPLEHHHHHH” here?
Answer: The value was “not soluble”.

Question: For “MTNVLYQHGTLGTLMAGLLEGTATINELLEHGNLGIATLTGSDGEVIFLDGKAYHANEHKEFIELKGDEKVPYASITNFKASKTFPLQQLSQDDVFAQIKNEMLSENLFSAVKIYGTFKHMHVRMMPAQQPPYTRLIDSARRQPEEKRQDIRGAIVGFFTPELFHGVGSAGFHIHFADDERAYGGHVLDFEVDDVVVEIQNFETFQQHFPVNNETFVKAKIDYKDVAEEIREAE”, which “soluble on expression in E. coli” value is on record?
Answer: The value was “soluble”.

Question: Which “soluble on expression in E. coli” value does the source give for “MTPTTTPVSNPDALSTGTQDVHTLKGTLQRLAPGTPLRDGLDRIVRGHTGALIVIGDDENVSSICDGGFEFDVSFAATRLRELCKMDGAVILSSDLERIKRANVQLLPSPTWPTQESGTRHRSAERTALHTGVPVIAVSESQNTITLYVEGKSHMLEQPAALLNRANQALGTMERYRDRLDQVNNRLHLAELHSYVTVIDVVSVIQREEMLRRVGEIIDGDVLELGKDAKEIQIQLSELRGDNDRERESIIADYLVTDGIPADEEIHAALEAISHLDDKALLNPANIARVLGLPPTEEALDEPVTPRGYRTLNRIPRVQKFLMDKLIVEFGNLDALLNASVEDLSAVDGVGSLWARHITDGLGRLS” here?
Answer: Its value is “not soluble”.

Question: With “MTQPPASTSGIMGTLSSWNLKILQINQLHLVHWNAVKFENFEDAALEENGLAVIGVFLKISETSGSPVSTGRPKPLARKLRPAQKHWVLQSRPFLSSQVQENCKVTYFHRKHWVRIRPLRTTPPSWDYTRICIQREMVPARIRVLREMVPEAWRCFPNRLPLLSNIRPDFSKAPLAYVKRWLWTARHPHSLSAAW” as the sequence, how does the “soluble on expression in E. coli” value read?
Answer: The value was “soluble”.

Question: With “MTQTLLAIENLSVGFRHQQTVRTVVNDVSLQIEAGETLALVGESGSGKSVTALSILRLLPSPPVEYLSGDIRFHGESLLHASDQTLRGVRGNKIAMIFQEPMVSLNPLHTLEKQLYEVLSLHRGMRREAARGEILNCLDRVGIRQAAKRLTDYPHQLSGGERQRVMIAMALLTRPELLIADEPTTALDVSVQAQILQLLRELQGELNMGMLFITHNLSIVRKLAHRVAVMQNGRCVEQNYAATLFASPTHPYTQKLLNSEPSGDPVPLPEPASTLLDVEQLQVAFPIRKGILKRIVDHNVVVKNISFTLRAGETLGLVGESGSGKSTTGLALLRLINSQGSIIFDGQPLQNLNRRQLLPIRHRIQVVFQDPNSSLNPRLNVLQIIEEGLRVHQPTLSAAQREQQVIAVMHEVGLDPETRHRYPAEFSGGQRQRIAIARALILKPSLIILDEPTSSLDKTVQAQILTLLKSLQQKHQLAYLFISHDLHVVRALCHQVIILRQGEVVEQGPCARVFATPQQEYTRQLLALS” as the sequence, how does the “soluble on expression in E. coli” value read?
Answer: The value was “not soluble”.

Question: With “MTRAILFDLDGTLVDTRAASWQLFSETNLAFALGIDSREAFFRAFEGNFFESLAKLCPDPQRAAAVKAHFMELLRTRYHPALIPGMVDVVRALAPHSTLAVISTNGIEAIRRILVGADLANCFSHVFSGDVEPRKAVSIRRFLGDHRYAVHRACSPAYHDGEASHASLQAQDVVLVTDTVGDVREAREAGIRAIGVTWGMHSERQLLDAGAERVALWPQELVAWLRDADAPATSCGCSSGSADSCALPPAPAPAVRAAAAPPTGDPVREVARHRRERQLHTRLQAAAATAPAAPGASMASAASGPSARTELMSSLQRILREGDH” as the sequence, how does the “soluble on expression in E. coli” value read?
Answer: The value was “not soluble”.

Question: Which “soluble on expression in E. coli” value does the source give for “MTRKFLNILKERTGVESITREQVRGIRRLVKKAREWDERKAQRYAKSAGKISDEEYSRLWSIDSYVISDSDKEKLKNLDQKTVFNNIMWLSRNAEKIDSNMKKFLGMHVWVVNYWIKTVGSATVRKFLRENNYSGEFVYFLYRYFNL” here?
Answer: Its value is “not soluble”.

Question: For “MTRPIGIYEKATPKHFNWLERLQFAKELGFDFVELSIDESDERLARLEWSKEERLELVKAIFETGVRVPTITFSGHRRFPMGSNNPEKEARAMDMMKKCIVFAQDIGIRNIQLAGYDVYYEEKSPETRARFIKNLRQACTWAEEAQVILSIEIMDDPFMNSIEKYLAVEKEIDSPYLFVYPDTGNVSAWHNDLWSEFYNGHRSIAALHIKDTYAVTETSKGQFRDVPFGQGCVDWEEMFAVIKKTNYNGPFLIEMWSENCETVEETRAAIKEAQDFLYPLMEKTGVK”, which “soluble on expression in E. coli” value is on record?
Answer: The value was “not soluble”.

Question: With “MTSALPRPAPSPYARRKTALVIGAGFGGLALGIRLQSLGFDTTILERLDGPGGRAYQKRTPDGYVFDMGPTVLTVPHFIEELFALERDRAGLDAPDYPPEVLSGERVKEGVSGGPHTSRYVTLVPILPFYRIVFHDGTYFDYDGDPESTRRQIAELAPGDLAGYERFHADAEAIFRRGFLELGYTHFGDVPTMLRVVPDLLKLDAVRTLFSFTSKYFQSDKLRQVFSFETLLVGGNPLSVPAIYAMIHFVEKTWGIHYAMGGTGALVRGLVQKFEELGGAIRYGAGVDEVLVDGNLPGKRTARGVRLESGEELRADLVASNGDWANTYLKRVRPSARLVNSDLRVKAASESMSLLVVYFGFRGGDDLPLKHHNILLGPRYEALLSEIFGTKRLGEDFSQYLHVPTLTDPALAPAGHHAAYTLVPVPHNGSGIDWDVEGPKLAEAALADIERRGLIPGLRERLTHFEFITPDYFAGTLDSYLGNAFGPEPRLVQSAFFRPHNRSEDLHNFYLVGAGAQPGAGTPSVMMSAKMTARLIAEDFGIHADIRRLEHHHHHH” as the sequence, how does the “soluble on expression in E. coli” value read?
Answer: Its value is “not soluble”.

Question: With “MTSIEWDEKTFTKFAYLSDPRTRKNLVAYVLTKANLESNKYENTIVIENLEDGSRKFIEDASMPRISPDGKKIAFMRFNEEKKTAQIWVADLKTLSAKKVLEAKNIRSIEWNQDSRRLLAVGFKRREDEDFIFEDDVPAWFDNMGFFDGEKTTFWVIDTEGEEVIEQFEKPRFSSGIWHGDSIVVSVPHRDVIPRYFKYWDIYLWKDGEEEKLFEKVSFYAIDSDGERILLYGKPEKKYVSEHDKIYIYDGEVKGILDDIDREVAQAKIRNGKVYFTLFEEGSVNLYLWDGEVREIAKGKHWIMGFDADERLIYLKETATRPAELYLWDGEERQLTDYNGLIFKKLKTFEPRHFRFKSIDLELDGWYIKPEIKEGEKAPVIVFVHGGPKGMYGYYFKYEMQLMASKGYYIVYVNPRGSNGYSEDFALRVLERTGLEDFQDILNGIEEFLRLEPQADRERIGITGISYGGYMTNWALTQSDLFKAGISENGISYWLTSYAFSDIGLWFDKEVIGDNPLENENYRKLSPLFYAKNVKAPLLLIHSLEDYRCPLDQSLMFYHVLKDLGKEVYIAIFKKGAHGHSIRGSPRHRMKRYKLFMEFFERKLKKYEEGFDVEKILKEEKK” as the sequence, how does the “soluble on expression in E. coli” value read?
Answer: Its value is “soluble”.

Question: Which “soluble on expression in E. coli” value does the source give for “MTSILNPVIRKEYSELKRPDLRGKFICASCGQHFQHNASLNRHRRLLHGNEHTCMMCDRKLNAKETIRDHMRNEHNLFQVFTCGCCNWSFSSKRQLSEHTKCIQGTGAPGDTIPIAKSCNAPGSLIQSTIQGTPPVVKTGRKRGGSLSSSSSVSTSISSRDVSGSPPPTEEEAERKVLFDNAVDTILQSKFFTYQQITEVDTWIKIIENANTLADTLQRINKTKKIKAEMPADKDVKRFKLEVE” here?
Answer: Its value is “not soluble”.

Question: Which “soluble on expression in E. coli” value does the source give for “MTSLSVNDRKDFVDGQMKYWRQIAESDGFDIDDVPVPRGTRAGLWSVDCKHPRFRLRACLPKIYAMVGLHRYNLLRGTNFEHLELLKYNESMNCVCSYYITSVAVDLSSQLQKTFQIRVDEKSFGDLDLTVSVARPNDEEKVTTEKRFIHHFHCEAAADDFYKGALPDWPSVGDLNNQKRFYMVKKCELQSNDWIRLYLELAVGVRYQQTSESDLSKLQVLKVAIETKEEDVQPPNRRLKSKSLHVYITFKGLAKAPIGDEIGEHVERKAIVRRVIDERSGHLTLLGGFSNAKNDLNQSSDDEQPFGKRRRI” here?
Answer: Its value is “soluble”.

Question: Which “soluble on expression in E. coli” value does the source give for “MTSLVRGQNTPLTSPQLTVTVSGVTPGSVDLMVFQVTTTGNVRSDSDFVFFNQPASPEGAVRLTGPSTVDVDVTKVPHSIDRLRLAVSMDDSAPGSLAAIPGLGVTLGSVSAPALGLTTERAAVLAEIYRRGEQWKIRNVSAGWDTGLKALVTEHGVVVDDAPSHPPAPTYPSTPPAQPPAPVIAPPAPTPTPAPQPRVQRSKITLTKASPTVSLAKGGDTGTMRVNLNWTRGRRGLFGGNGAIDLDLACLYQLNDGSKGVVQALGNAFGDLHYPPYIALDGDDRSGTNAGGENLHINLAHLADFKRILIFAYIYDGTPNWSAADGIVTLYPPHGPEVEVRLDSPDNRARSCAIALLKNERNELTVTREVRYINGTQSDISKAYRWGLKWTAGRK” here?
Answer: Its value is “not soluble”.

Question: For “MTSSTGTRRLTAKGRATRDRIVAAAAQLMYERGVTGTSTEDILKAARVASPSQLYHYFGDKRGLVQAVIEHQTEQVLGFQKPLLSRLDSIEALEAWRDAVVEAQHARDCQGGCPLGSLASELSDLDPQARARLVAGYEQWGNAIREGLRSMRERGELDGGADPDRLALALLTALQGGLLMTQTRRDTIALEAVLNTMIDHIRFRTTP”, which “soluble on expression in E. coli” value is on record?
Answer: Its value is “soluble”.

Question: With “MTSTPEFLKQLDYEQLKYCRELCDNRIRAIEAEEKKMAWAVTDGGINYGWFRTEDYMKAVECLVATAAERWEESDKADPSGRGWLDLSIRGSRLPVSEYEALFADGQWG” as the sequence, how does the “soluble on expression in E. coli” value read?
Answer: The value was “not soluble”.

Question: For “MTSTSRPPARGSENNGSGGSDGSGSGEDKVKGPTDKELEDAVNKLVEVAKKKAQEEADQARRSVEGKKSFEGDVLEYPYTREEVTKMIEDGAKEIKERFAAVYTPKPDDFDTMISRMQQVEAVLGAYEPSKNTTKETPVIGGGGDLELLRTSVSDMSDWQGKLKNAFVDNYLTPFPRITVTQGGLARFLRHQAEWMQAIYKRRRYDAKKTADQGVEAIEAIDDSKGSEAAIALAAIIGLATLLGPMGSSLAFGLGTSAVVAGTGIGAEFIEEDKEVPLGADTVQGVIDNVYKALEESDKTMVEEEGKVLDALKQIEGVVYPLVMGPDIDKGTELTPMRPAIVDTMDVEELKDGITVYDRHPGGS”, which “soluble on expression in E. coli” value is on record?
Answer: Its value is “not soluble”.

Question: Which “soluble on expression in E. coli” value does the source give for “MTSYDQIWETFLNNCETSDFDVPQQEEDIYKSIRNAILHFNNRLRDNLKADNSTETVNRELSEDDLLILAHFLRYIFLLNKKTLFENTWQPFTNDVGIKNFGTQLNSLKQSVMDQKDEIERLILNAAVDYLLEHHHHHH” here?
Answer: The value was “not soluble”.

Question: Which “soluble on expression in E. coli” value does the source give for “MTSYSLEDFNTPLECAPLARWERKRKEQLDRTSKTPNKTPQGDRFIPNRNVMNIEVSRLNLQQEYYGKENNQNSSSLLDSHMDNVEWNSGKDSPACHHYQSALASSLLQNSYHEEHPQSKILTFKQKAPKPQEGYVNSLKVLYSQNMPQISEQRKRMIRHIPQTPDRILDAPELVDDYYLNLLDWNHENILAVALGSSVYLWNASTGDIQELCNVSQDEMICSVSWVPDGHHLAVGTSMKDVQLWDTQRGRQVRKMHSHSSRVGCLAWNGPILSSGSRDTTIHHHDVRIAQHHVETLRGHEQEVCGLKWNVDGSQLASGGNDNLLMIWDHFHSNQPKYRLDHHHAAVKAIAWCPWQTHLLASGGGTADRTIKFWNTTTGACLQSIDTKSQVCALIWNRHDKEIVSSHGFSQNQLIVWKYPSMVKMAELTGHTSRVLHLSLSPDGQTVVSGAGDETLRFWRVFEASESKLKSSNKTLGHSQKSIMRTCNIR” here?
Answer: The value was “soluble”.

Question: With “MTTDAAVAELLALGELTVRGRIRDASNAALYCTVTHEGREAACVYKPVAGERPLWDFPDGTLAQREVAAYEVSEATGWGLVPPTVLRDGPYGEGMVQLWIETVPETELLALVDEEEPGPGWKGIALAEVGEGRTALLVHADDERLRRLAVLDAVINNADRKGGHLLPAAGERLYGIDHGVTFNAENKLRTLLWGWAGDALTGEALAVLDALRRALKDGGTLALRLAALITPAELDATRARVDALLASGKHPEPGGEWPAIPWPPVLEHHHHHH” as the sequence, how does the “soluble on expression in E. coli” value read?
Answer: Its value is “not soluble”.
